Reference: article PMC9950733, “Screening and epitope characterization of diagnostic nanobody against total and activated Bacteroides fragilis toxin” (Frontiers in Immunology, 2023)
Numbering of substitutions follows the chain as printed.

T1: recombinant Bacteroides fragilis toxin 1 (BFT1), full length without signal peptide (Bacteroides fragilis (enterotoxigenic), …)
T1 chain: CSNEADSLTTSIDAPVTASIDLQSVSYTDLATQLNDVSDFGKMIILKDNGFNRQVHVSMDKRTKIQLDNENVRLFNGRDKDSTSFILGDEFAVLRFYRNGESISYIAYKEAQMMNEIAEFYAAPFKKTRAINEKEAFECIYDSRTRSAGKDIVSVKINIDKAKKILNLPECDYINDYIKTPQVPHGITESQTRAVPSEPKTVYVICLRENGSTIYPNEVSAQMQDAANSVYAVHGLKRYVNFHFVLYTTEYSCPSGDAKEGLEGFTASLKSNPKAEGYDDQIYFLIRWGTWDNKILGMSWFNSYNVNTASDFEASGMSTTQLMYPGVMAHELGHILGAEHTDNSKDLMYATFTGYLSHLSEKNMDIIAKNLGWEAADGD

B1: Nb3.61 (VHH)
VHH: QVQLQESGGGLVQPGGSLRLSCAASGFSFSSYAMTWVRQAPGKGPERVSIINPSGRTTNYADSVKGRFTISRDNAKNTLYLQMNSLKPEDTALYYCARKPPMAEEYDYRGQGTQVTVSS
B2: Nb2.13 (VHH)
VHH: QVQLQESGGGLVQPGGSLTLSCVGSGFSLEYYAVGWFRQAPGKEREAVACISSWDGLTYLSDSVKGRFTVSRDNVKNTAYLQMNSLKPEDSAVYYCARDRARCRYYSTPNEYDEWGHGTQVTVSS
B3: Nb2.50 (VHH)
VHH: QVQLQESGGGLVQAGGSLRLSCVSSGRTFDAWAMGWLRQAPGKERESVATISWSGDRTQYADSVKGRFTISRDNAKNTLFLQMNNLRPEDTAIYYCALMEGTHYSGRPGTWGRGTQVTVSS
B4: Nb2.1 (VHH)
VHH: QVQLQESGGGLVQPEGSLRLSCVASGEFTLDYYAIGWFRQAPGKEREELSCISRTGANTNYADSVKGRFTVSRDNAKNTVYLQMNSLKPEDTANYYCAATLGVNNDCSGYVSPDVYDYWGHGTQVTVSS
B5: Nb2.74 (VHH)
VHH: QVQLQESGGGLVQPGGSLRLSCGASGFTFNGYAMSWVRQAPGKGPEWVSGINTIGNTTYYADSVKGRFTISRDNAQNTLYLQMNSLKPEDTALYYCARKPFGSTWTEYDYRGQGTQVTVSS
B6: Nb3.88 (VHH)
VHH: B5 VHH with G23A, F27L, N56T, Q76K, T106S
B7: Nb2.59 (VHH)
VHH: QVQLQESGGGLVQAGGSLRLSCAFSGRTDDAQYAMGWFRQAPGKERESVGTINWSGDRTNYADSVKGRFTISRDNVKNMMYLQMNSLKPEDTAVYYCARIYGTYLSGSPGSWGQGTQVTVSS
B8: Nb3.74 (VHH)
VHH: QVQLQESGGGFVQTGGSLRLSCERSGTTFDSFAMGWFRQAPGKERESVGTINWSGDRTYYADSVKGRFTISRDNAKNTVYLQMKKLKPEDTAVYYCAQIRGTYLDGSPGSWGQGTQVTVSS
B9: Nb3.27 (VHH)
VHH: QVQLQESGGGLVQAGGSLRLSCTYSGQTFSAWAMGWFRQAPGKERETVATINWNGERTQYADAVKGRFTISRDNAKDTVYLEMNSLKPEDTAVYYCASMMGTYYSGSPKNWGQGTQVTVSS
notes: from round 3 of bio-panning; CDR1 Gly26-Ala33, CDR2 Ile51-Thr58, CDR3 Ala97-Asn110; source: E. coli WK6 periplasm, purified (Ni-NTA, SEC on Superdex 75)
B10: Nb2.41 (VHH)
VHH: QVQLQESGGGLVQAGGSLRLSCASSGRTFDAWAMGWFRQAPGKEREVVATISWNGDRTYYGDSVKGRFTISRDNAKSTVALQMNNLKPEDTGVYYCAQMEGTYYSGRPSYWGQGTQVTVSS
notes: from round 2 of bio-panning; source: E. coli WK6 periplasm, purified (Ni-NTA, SEC on Superdex 75)
B11: Nb3.63 (VHH)
VHH: QVQLQESGGGLVQVGGSLRLSCAASGRTFGTFPMGWFRQAPGKEREFVAAISWSGTGTYYANSVKGRFTISRDNARNTVYLQMNNLKPEDTAVYSCAGRNTGRYSTTVYVEESDYGYWGQGTQVTVSS
notes: from round 3 of bio-panning; source: E. coli WK6 periplasm, purified (Ni-NTA, SEC on Superdex 75)
B12: Nb2.14 (VHH)
VHH: QVQLQESGGGFVQTGGSLRLSCERSGTTFDSFAMGWFRQSPGKEREKVATINWSGESTSYTDSVKGRFTISRDNAKNTVYLQMNNLQPEDTAIYYCAQIAGTHYSGTPQYWGQGTQVTVSS
notes: as for B10
B13: Nb3.40 (VHH)
VHH: B12 VHH with H103Y
notes: as for B11
B14: Nb2.40 (VHH)
VHH: QVQLQESGGGLVQAGGSLRLSCAYFGRTFSAWAMGWFRQAPGKERESVATINWSGERTSYADSVKGRFTISRDNAKNTVYLQMNSLKPEDTAVYYCAAMEGTYYSGKPGTWGQGTQVTVSS
notes: as for B10
B15: Nb2.37 (VHH)
VHH: QVQLQESGGGLVQPGGSLRLSCVVSRRTFDAWAMGWFRQAPGQERDFVASVNWSGDSTYYADSVKGRFTISRDNAKNTVYLQMNSLKPEDTAVYYCAALAGSYHSRTPLDDYWGQGTQVTVSS
notes: as for B10
B16: Nb2.82 (VHH)
VHH: QVQLQESGGGLVQPGGSLRLSCAASGFTFSRYTMTWVRQAPGKGLEWVSNINSDGGRTYYADSVKGRFTISRDNTKNTLYLQMNSLKPEDTAVYYCAIPKRTYVPPSQFDDRGQGTQVTVSS
notes: from round 2 of bio-panning; CDR1 Gly26-Thr33, CDR2 Ile51-Thr58, CDR3 Ala97-Asp111; source: E. coli WK6 periplasm, purified (Ni-NTA, SEC on Superdex 75)
B17: Nb2.29 (VHH)
VHH: QVQLQESGGGLVQAGGSLRLSCVASGIIDNINTFGWYRQAPGKQRELVANISRWGNTNYADSSRDGFFISSEDANTTMYLLMMNLKPDDDAVYYCRAEIIGYDNGAHDYWGRGTRITVSS
notes: as for B10
B18: Nb3.93 (VHH)
VHH: QVQLQESGGGLVQPGGSLRLSCAASGSTLARYHIGWFRQAPGKEREGVACISSSGDSTNYADSVKGRFTISRDNANNTVYLQMNSLKPEDTAVYYCVADPLKCILRRGGENRYLEHWGQGTQVTVSS
notes: as for B11
B19: Nb3.4 (VHH)
VHH: QVQLQESGGGLVQPGGSLRLSCAASGFTFSSAAMNWVRQAPGKGPEWVSGINSSGTTTKYADSVKGRFTISRDNAKNTLYLQMNSLKPEDTAIYYCARKPLWSVGYDYWGQGTQVTVSS
notes: as for B11
B20: Nb2.55 (VHH)
VHH: QVQLQESGGGLVQAGGSLRLSCVRSGHTFDAFAMGWFRQAPGKERESVATINWSGDRTYYADSAKGRFTISRDNAKNTVYLQMNSLKPEDTAVYYCAQMDGTYYSGTPSYWGQGTQVTVSS
notes: as for B10
B21: Nb3.43 (VHH)
VHH: B20 VHH with V23A, H27R, D30S, A31S, S47F, R57K, Y59S, A64V, T107S, S109G
notes: as for B11
B22: Nb3.17 (VHH)
VHH: QVQLQESGGGLVQAGDSLRLSCAASGGSFDMFAMGWFRQAPGKERERVATISWSGDRTVYADSVKGRFTISRDNTKKMLYLQMNNLKPEDTAVYYCAQIEGTHYSGSPSDHWGQGTQVTVSS
notes: as for B11

Target: T1, recombinant Bacteroides fragilis toxin …
Assay: not given
Settings: not given
B1: binds. B2: binds. B3: binds. B4: binds. B5: binds. B6: binds. B7: binds. B8: binds.

Target: T1, recombinant Bacteroides fragilis toxin …
Assay: ITC; Microcal ITC 200, 25°C; 20 mM Tris pH 8.0, 150 mM NaCl, 5% glycerol; nanobody (20 μM) injected into BFT solution (200 μM); one binding site mode
Settings: both partners purified
With B9 the “stoichiometry N” value was 1. With B10 the “stoichiometry N” value was 1. In the case of B11, the “stoichiometry N” value is reported as 1. B12 was tested, and the “stoichiometry N” value was 1. With B13 the “stoichiometry N” value was 1. B14 was tested, and the “stoichiometry N” value was 1. B15 was tested, and the “stoichiometry N” value was 1. With B16 the “stoichiometry N” value was 1. In the case of B17, the “stoichiometry N” value is reported as 1. For B18, the “stoichiometry N” value was 1. B19 was tested, and the “stoichiometry N” value was 1. B20 was tested, and the “stoichiometry N” value was 1. B21 was tested, and the “stoichiometry N” value was 1. In the case of B22, the “stoichiometry N” value is reported as 1.

Target: T1, recombinant Bacteroides fragilis toxin …
Assay: as above
Settings: both partners purified
Remark: another data set of the same source
B9 was tested, and the Kd was 0.828 nM and the dH was -9.47 kcal/mol. B10 showed a Kd of 1.37 nM and a dH of -20 kcal/mol. B11 gave a Kd of 3.37 nM and a dH of -18.8 kcal/mol. B12 was tested, and the Kd was 0.36 nM and the dH was -14.3 kcal/mol. For B13, the Kd was 2.58 nM and the dH was -13.6 kcal/mol. Work on B14 yielded a Kd of 8.72 nM and a dH of -13.5 kcal/mol. B15 showed a Kd of 3.91 nM and a dH of -14.1 kcal/mol. For B16, the Kd was 11.5 nM and the dH was -17.9 kcal/mol. With B17 the Kd was 1.18 nM and the dH was -15.5 kcal/mol. With B18 the Kd was 5.96 nM and the dH was -22.1 kcal/mol. In the case of B19, the Kd is reported as 3.94 nM and the dH is reported as -8.4 kcal/mol. In the case of B20, the Kd is reported as 10.6 nM and the dH is reported as -10 kcal/mol. With B21 the Kd was 2.01 nM and the dH was -9.06 kcal/mol. In the case of B22, the Kd is reported as 0.66 nM and the dH is reported as -20.3 kcal/mol.
